Results on 3 molecules are retold here after patent US20170298375, “CONTROL OF CELLULOSE BIOSYNTHESIS BY OVEREXPRESSION OF A TRANSCRIPTION FACTOR” (Board of Trustees of Michigan State University, published 2017).

For one data set, the target named is GST (UniProt P08515 P08515:1-218). As to the kind of experiment: EMSA; GST alone control. The following applies: tags: GST alone control; label: 32P. The method, then:
(§1) A GST-MYB46 fusion protein was first incubated with the wild type, double-stranded ³²P-labeled oligodeoxynucleotides with the wild type CESA4, CESA7 and CESA8 promoter sequences shown in FIG. 3A. The GST protein was used as control protein. Unlabeled competitor promoter oligonucleotides were then added the assays to generate the assay mixtures identified FIG. 3B, where the competitors were oligonucleotides with wild type and mutated CESA4, CESA7 and CESA8 promoter sequences shown in FIG. 3A. […] To generate the results shown FIG. 3B, each assay mixture was then subjected to an electrophoretic mobility shift assay (EMSA) by polyacrylamide gel electrophoresis (PAGE). […] The promoter regions used for the DNA probes in each experiment are indicated below the gel images. Competition for the protein-DNA binding was performed using 60× unlabeled probes. The free unbound DNA probes are indicated by the arrow.
(§2) DNA fragments for EMSA were obtained by PCR-amplification and labeled with [γ-³²P]ATP using T4 polynucleotide kinase (NEB). The end-labeled probes were purified with Microspin S-200 HR column (GE Healthcare). The labeled DNA fragments were incubated for 25 min with 50 ng of GST-MYB46 in a binding buffer [10 mM. Tris (pH 7.5), 50 mM KCl, 1 mM DTT, 2.5% glycerol, 5 mM MgCl₂, 100 μg/ml BSA, and 50 ng/μL poly(dI-dC)].
(In general: Mobility shift assays separate free from complexed probe on a gel.)

In data set [1] the target is T1, GST-MYB46 (Arabidopsis thaliana, UniProt Q9LXV2 SEQ:1-280). As to the kind of experiment: EMSA; labelled fragment stated as -525 to -358 in text. The following applies: tags: GST fusion, E. coli Rosetta gami; label: 32P. The method, then:
as §1, §2

For data set [2], the target named is T1, GST-MYB46. The experiment in a line: EMSA; labelled fragment stated as -662 to -486 in text. The following applies: tags: GST fusion, E. coli Rosetta gami; label: 32P. The method, then:
as §1, §2

In data set [3] the target is T1, GST-MYB46. The experiment in a line: EMSA; labelled fragment stated as -248 to -69 in text; 5 mM MgCl2, 50 mM KCl, pH 7.5. The following applies: tags: GST fusion, E. coli Rosetta gami; label: 32P. The method, then: as §1, §2

Chain of GST (P08515 whole entry, the tested form may be a part, one chain of several): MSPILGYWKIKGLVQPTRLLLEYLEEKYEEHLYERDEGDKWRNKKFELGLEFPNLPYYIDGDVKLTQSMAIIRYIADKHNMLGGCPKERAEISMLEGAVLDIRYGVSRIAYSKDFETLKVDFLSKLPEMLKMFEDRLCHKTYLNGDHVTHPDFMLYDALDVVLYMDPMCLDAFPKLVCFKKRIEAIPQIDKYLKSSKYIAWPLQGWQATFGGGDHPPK
T1 sequence (Q9LXV2 whole entry, the tested form may be a part): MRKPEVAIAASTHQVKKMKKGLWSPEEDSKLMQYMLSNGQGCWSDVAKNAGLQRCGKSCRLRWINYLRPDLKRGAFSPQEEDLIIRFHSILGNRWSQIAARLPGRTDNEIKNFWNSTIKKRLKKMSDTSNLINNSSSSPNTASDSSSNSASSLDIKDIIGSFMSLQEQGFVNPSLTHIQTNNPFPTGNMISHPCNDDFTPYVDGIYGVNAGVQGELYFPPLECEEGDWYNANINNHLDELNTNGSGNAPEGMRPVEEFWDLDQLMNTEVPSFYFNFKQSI

B1: ProCesA8wt (dsDNA)
DNA 1: CTTATAGAAAGTTGGTGATTGAAAA
DNA 2: TTTTCAATCACCAACTTTCTATAAG
For the molecule B1, the results for the binding result in the data set with GST and in the data set with GST-MYB46 [1] were “no binding” and “binds”, respectively.

B2: ProCesA7wt (dsDNA)
DNA 1: CAGAAAATTCACCTAATTAAGGACA
DNA 2: TGTCCTTAATTAGGTGAATTTTCTG
As to B2, the values for the binding result with GST and in the data set with GST-MYB46 [2] were “no binding” and “binds”, respectively.

B3: ProCesA4wt (dsDNA)
DNA 1: TCACTCACAGTTTGGTACAACCTCA
DNA 2: TGAGGTTGTACCAAACTGTGAGTGA
For B3, the binding result in the data set with GST is “no binding”; in the data set with GST-MYB46 [3], “binds”.
